Assay results reported in paper PMC314469, “Protein Interaction Networks by Proteome Peptide Scanning” (PLoS Biology, 2004).

Assays:
[1] = biological target: endophilin SH3 (SH3G2_HUMAN), Q99962; assay: SPOT array
[2] = biological target: T1, amphyphisin SH3 (AMPH_HUMAN), P49418; assay: SPOT array
T1 chain: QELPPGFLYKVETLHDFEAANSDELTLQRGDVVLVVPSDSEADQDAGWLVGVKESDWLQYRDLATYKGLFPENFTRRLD

FGAVLRRPHDPKTV [Q07283 41-54]
normalised SPOT signal, Boehringer light units (BLU); mean over the file's lines of this peptide [1]: 51.1
normalised SPOT signal, Boehringer light units (BLU); mean over the file's lines of this peptide [2]: 18.4

FGLVPERPLKQELG [Q99526 361-374]
normalised SPOT signal, Boehringer light units (BLU); mean over the file's lines of this peptide [1]: 284
normalised SPOT signal, Boehringer light units (BLU); mean over the file's lines of this peptide [2]: 647

FGDLPRKPPLPSSA [Q96QH2 422-436]
normalised SPOT signal, Boehringer light units (BLU); mean over the file's lines of this peptide [1]: 994
normalised SPOT signal, Boehringer light units (BLU); mean over the file's lines of this peptide [2]: 48.3

AHMAISRPLKASQM [Q9HCH8 560-573]
normalised SPOT signal, Boehringer light units (BLU); mean over the file's lines of this peptide [1]: 417
normalised SPOT signal, Boehringer light units (BLU); mean over the file's lines of this peptide [2]: 137

FEGSLRRPLSWKSL [Q9BPU7 391-404]
normalised SPOT signal, Boehringer light units (BLU); mean over the file's lines of this peptide [1]: 67.7
normalised SPOT signal, Boehringer light units (BLU); mean over the file's lines of this peptide [2]: 43.8

FGTLPPRPPGQDTS [O75336 479-493]
normalised SPOT signal, Boehringer light units (BLU); mean over the file's lines of this peptide [1]: 77.3
normalised SPOT signal, Boehringer light units (BLU); mean over the file's lines of this peptide [2]: 52.3

FGDKFKRPIGSWES [P49790 786-799]
normalised SPOT signal, Boehringer light units (BLU); mean over the file's lines of this peptide [1]: 45.5
normalised SPOT signal, Boehringer light units (BLU); mean over the file's lines of this peptide [2]: 34

FDGSPEKPPEDDSD [O94885 388-402]
normalised SPOT signal, Boehringer light units (BLU); mean over the file's lines of this peptide [1]: 36.7
normalised SPOT signal, Boehringer light units (BLU); mean over the file's lines of this peptide [2]: 36.5

FGRRPRRPVDGRVG [Q8WUZ5 5-18]
normalised SPOT signal, Boehringer light units (BLU); mean over the file's lines of this peptide [1]: 83.3
normalised SPOT signal, Boehringer light units (BLU); mean over the file's lines of this peptide [2]: 35.7

FKDVLLRPKRSSLK [P36959 12-25]
normalised SPOT signal, Boehringer light units (BLU); mean over the file's lines of this peptide [1]: 557
normalised SPOT signal, Boehringer light units (BLU); mean over the file's lines of this peptide [2]: 3460

FEEGIKRPYFHVKP [Q9NWR1 213-226]
normalised SPOT signal, Boehringer light units (BLU); mean over the file's lines of this peptide [1]: 147
normalised SPOT signal, Boehringer light units (BLU); mean over the file's lines of this peptide [2]: 48.9

FFKGIRRPWKGVLM [O75449 234-247]
normalised SPOT signal, Boehringer light units (BLU); mean over the file's lines of this peptide [1]: 159
normalised SPOT signal, Boehringer light units (BLU); mean over the file's lines of this peptide [2]: 62.9

FHKIFIRPLRYRSR [Q13258 335-348]
normalised SPOT signal, Boehringer light units (BLU); mean over the file's lines of this peptide [1]: 2980
normalised SPOT signal, Boehringer light units (BLU); mean over the file's lines of this peptide [2]: 15900

FDNTLSRPSRVPLG [Q99743 208-221]
normalised SPOT signal, Boehringer light units (BLU); mean over the file's lines of this peptide [1]: 170
normalised SPOT signal, Boehringer light units (BLU); mean over the file's lines of this peptide [2]: 1220

AHLPPPRPQRPAET [Q9UFB1 214-227]
normalised SPOT signal, Boehringer light units (BLU); mean over the file's lines of this peptide [1]: 238
normalised SPOT signal, Boehringer light units (BLU); mean over the file's lines of this peptide [2]: 248

FIKIPRRPDQPGKG [Q99853 71-84]
normalised SPOT signal, Boehringer light units (BLU); mean over the file's lines of this peptide [1]: 479
normalised SPOT signal, Boehringer light units (BLU); mean over the file's lines of this peptide [2]: 117

FERPFRRPNANFTS [Q9NVW8 331-344]
normalised SPOT signal, Boehringer light units (BLU); mean over the file's lines of this peptide [1]: 343
normalised SPOT signal, Boehringer light units (BLU); mean over the file's lines of this peptide [2]: 4010
